The values below come from the supplement of paper PMC9112550, “Optimization of the antimicrobial peptide Bac7 by deep mutational scanning” (BMC Biology, 2022).
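Also: peptides expressed intracellularly from a pBAD plasmid library in pooled LB shake-flask culture, induced with 0.3% L-arabinose, DNA abundance read by NGS, three biological replicates, DESeq2 with apeglm shrinkage.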

For this data set, the system named is Escherichia coli TOP10. The data set is described as follows: shrunken log2 fold change of peptide-encoding DNA abundance (4.5 h post-induction vs induction); higher = less antimicrobial activity (less host growth inhibition). The note with it: time post-induction: 4.5 h; library: site-saturation at positions 5, 18, 19, 20.
As for RRIRGRPPRLPRPRPRPFGMPRP, the “shrunken log2 fold change” value was 0.228.

RRIRWRPPRLPRPRPRPKLPPRP: the “shrunken log2 fold change” value turned out to be 0.247.

As for RRIRGRPPRLPRPRPRPRENPRP, the “shrunken log2 fold change” value came to 0.978.

For the sequence RRIRLRPPRLPRPRPRPAAVPRP, the “shrunken log2 fold change” value was found to be 0.376.

Consider RRIRQRPPRLPRPRPRPWFRPRP, for which the “shrunken log2 fold change” value is -0.145.

With RRIRTRPPRLPRPRPRPMPIPRP, the “shrunken log2 fold change” value is -0.0197.

With RRIRARPPRLPRPRPRPCNLPRP, the “shrunken log2 fold change” value was -0.314.

Take RRIRERPPRLPRPRPRPDEVPRP: the “shrunken log2 fold change” value came out at 0.0489.

Turning to RRIRVRPPRLPRPRPRPFSTPRP, the “shrunken log2 fold change” value is -0.496.

Regarding RRIRKRPPRLPRPRPRPASWPRP, the “shrunken log2 fold change” value is 0.625.

Consider RRIRARPPRLPRPRPRPQCPPRP, for which the “shrunken log2 fold change” value was 0.108.

Take RRIRQRPPRLPRPRPRPGSRPRP: the “shrunken log2 fold change” value was found to be 0.166.

RRIRPRPPRLPRPRPRPYIYPRP: the “shrunken log2 fold change” value was -0.518.

On to RRIRMRPPRLPRPRPRPCFWPRP, for which the “shrunken log2 fold change” value worked out at 0.237.

Take RRIRLRPPRLPRPRPRPSKRPRP: the “shrunken log2 fold change” value is -0.646.

On to RRIRCRPPRLPRPRPRPENIPRP, for which the “shrunken log2 fold change” value was -1.32.

For RRIRFRPPRLPRPRPRPPWTPRP, the “shrunken log2 fold change” value amounted to 0.123.

In the case of RRIRYRPPRLPRPRPRPMVSPRP, the “shrunken log2 fold change” value was -0.00277.

As for RRIRTRPPRLPRPRPRPLQWPRP, the “shrunken log2 fold change” value was 0.206.

Take RRIRYRPPRLPRPRPRPWKRPRP: the “shrunken log2 fold change” value was 0.047.

For RRIRFRPPRLPRPRPRPRHCPRP, the “shrunken log2 fold change” value was -0.239.

For RRIRDRPPRLPRPRPRPSDSPRP, the “shrunken log2 fold change” value is -0.0584.

On to RRIRERPPRLPRPRPRPCWMPRP, for which the “shrunken log2 fold change” value is -0.239.

As to RRIRIRPPRLPRPRPRPCPLPRP, the “shrunken log2 fold change” value is -0.751.

In the case of RRIRHRPPRLPRPRPRPATGPRP, the “shrunken log2 fold change” value is -0.276.

For RRIRVRPPRLPRPRPRPSEYPRP, the “shrunken log2 fold change” value was -0.418.

With RRIRRRPPRLPRPRPRPGWLPRP, the “shrunken log2 fold change” value turned out to be 0.427.

As for RRIRDRPPRLPRPRPRPQDCPRP, the “shrunken log2 fold change” value is -0.00195.

Take RRIRLRPPRLPRPRPRPVADPRP: the “shrunken log2 fold change” value was 0.0131.

As to RRIRHRPPRLPRPRPRPRMYPRP, the “shrunken log2 fold change” value is -0.194.

RRIRQRPPRLPRPRPRPGRTPRP: the “shrunken log2 fold change” value was -0.433.

Consider RRIRTRPPRLPRPRPRPARIPRP, for which the “shrunken log2 fold change” value is -0.0205.

Take RRIRDRPPRLPRPRPRPNGGPRP: the “shrunken log2 fold change” value was -0.0647.

For the sequence RRIRVRPPRLPRPRPRPPVSPRP, the “shrunken log2 fold change” value is 0.847.

As for RRIRYRPPRLPRPRPRPNVKPRP, the “shrunken log2 fold change” value is -0.386.

RRIRERPPRLPRPRPRPYKMPRP: the “shrunken log2 fold change” value is -0.0803.

As to RRIRWRPPRLPRPRPRPTFCPRP, the “shrunken log2 fold change” value was found to be 0.478.

For the sequence RRIRYRPPRLPRPRPRPLRTPRP, the “shrunken log2 fold change” value was -0.151.

For RRIRQRPPRLPRPRPRPSTSPRP, the “shrunken log2 fold change” value was -0.126.

With RRIRPRPPRLPRPRPRPQANPRP, the “shrunken log2 fold change” value is -0.137.

For the sequence RRIRWRPPRLPRPRPRPPQPPRP, the “shrunken log2 fold change” value worked out at 0.66.

Turning to RRIRERPPRLPRPRPRPQIAPRP, the “shrunken log2 fold change” value was found to be 0.0377.

As to RRIRNRPPRLPRPRPRPRKEPRP, the “shrunken log2 fold change” value is -0.0425.

As to RRIRRRPPRLPRPRPRPSMHPRP, the “shrunken log2 fold change” value came to 0.324.

For the sequence RRIRRRPPRLPRPRPRPKDAPRP, the “shrunken log2 fold change” value turned out to be 0.0371.

On to RRIRWRPPRLPRPRPRPFGFPRP, for which the “shrunken log2 fold change” value came to 0.321.

In the case of RRIRCRPPRLPRPRPRPHNRPRP, the “shrunken log2 fold change” value was -0.512.

As for RRIRCRPPRLPRPRPRPGWPPRP, the “shrunken log2 fold change” value is 0.63.

Take RRIRDRPPRLPRPRPRPITVPRP: the “shrunken log2 fold change” value is -0.0979.

RRIRSRPPRLPRPRPRPDSKPRP: the “shrunken log2 fold change” value is 1.02.

Consider RRIRWRPPRLPRPRPRPRHCPRP, for which the “shrunken log2 fold change” value came out at 0.0392.

Regarding RRIRQRPPRLPRPRPRPEQYPRP, the “shrunken log2 fold change” value is -0.0417.

For RRIRHRPPRLPRPRPRPLEVPRP, the “shrunken log2 fold change” value is -0.184.

Turning to RRIRERPPRLPRPRPRPCWLPRP, the “shrunken log2 fold change” value was -0.0175.

Consider RRIRPRPPRLPRPRPRPHGAPRP, for which the “shrunken log2 fold change” value was determined as 0.641.

In the case of RRIRDRPPRLPRPRPRPRKMPRP, the “shrunken log2 fold change” value worked out at 0.154.

As to RRIRRRPPRLPRPRPRPVQWPRP, the “shrunken log2 fold change” value worked out at 0.143.

For the sequence RRIRIRPPRLPRPRPRPKDLPRP, the “shrunken log2 fold change” value came out at 0.000215.

Turning to RRIRFRPPRLPRPRPRPPIEPRP, the “shrunken log2 fold change” value was -0.201.

Consider RRIRYRPPRLPRPRPRPPYAPRP, for which the “shrunken log2 fold change” value is -0.265.

Turning to RRIRARPPRLPRPRPRPQFEPRP, the “shrunken log2 fold change” value was -0.102.

Take RRIRKRPPRLPRPRPRPNIKPRP: the “shrunken log2 fold change” value is -0.284.

Take RRIRCRPPRLPRPRPRPTRMPRP: the “shrunken log2 fold change” value was found to be 0.0511.

Turning to RRIRVRPPRLPRPRPRPPQRPRP, the “shrunken log2 fold change” value was found to be 0.374.

In the case of RRIRNRPPRLPRPRPRPEIEPRP, the “shrunken log2 fold change” value came out at 0.0339.

For RRIRHRPPRLPRPRPRPISRPRP, the “shrunken log2 fold change” value is -0.0532.

With RRIRKRPPRLPRPRPRPGAHPRP, the “shrunken log2 fold change” value came to 0.663.

As to RRIRPRPPRLPRPRPRPMIQPRP, the “shrunken log2 fold change” value was 0.0205.

Regarding RRIRSRPPRLPRPRPRPNSIPRP, the “shrunken log2 fold change” value was -0.861.

Turning to RRIRWRPPRLPRPRPRPYSSPRP, the “shrunken log2 fold change” value is -1.07.

Take RRIRQRPPRLPRPRPRPRTGPRP: the “shrunken log2 fold change” value amounted to 0.443.

As for RRIRVRPPRLPRPRPRPVVAPRP, the “shrunken log2 fold change” value worked out at 0.17.

Take RRIRQRPPRLPRPRPRPMGPPRP: the “shrunken log2 fold change” value was -0.0254.

Take RRIRTRPPRLPRPRPRPMEVPRP: the “shrunken log2 fold change” value is 0.117.

For the sequence RRIRARPPRLPRPRPRPCWLPRP, the “shrunken log2 fold change” value is 0.294.

For RRIRNRPPRLPRPRPRPDNQPRP, the “shrunken log2 fold change” value is -0.323.

On to RRIRVRPPRLPRPRPRPTSAPRP, for which the “shrunken log2 fold change” value was determined as 0.0866.

On to RRIRDRPPRLPRPRPRPDCLPRP, for which the “shrunken log2 fold change” value is 0.779.

Take RRIRDRPPRLPRPRPRPMRQPRP: the “shrunken log2 fold change” value worked out at 0.0681.

Consider RRIRKRPPRLPRPRPRPTKEPRP, for which the “shrunken log2 fold change” value worked out at 1.6.

On to RRIRGRPPRLPRPRPRPWHNPRP, for which the “shrunken log2 fold change” value is -0.145.

Regarding RRIRNRPPRLPRPRPRPAYCPRP, the “shrunken log2 fold change” value was -0.0951.

Consider RRIRWRPPRLPRPRPRPQGKPRP, for which the “shrunken log2 fold change” value was 0.127.

Consider RRIRCRPPRLPRPRPRPLNMPRP, for which the “shrunken log2 fold change” value is -0.646.

With RRIRNRPPRLPRPRPRPVSRPRP, the “shrunken log2 fold change” value was -0.152.

For the sequence RRIRARPPRLPRPRPRPGINPRP, the “shrunken log2 fold change” value is -0.242.

Consider RRIRFRPPRLPRPRPRPDTSPRP, for which the “shrunken log2 fold change” value is -0.985.

For RRIRWRPPRLPRPRPRPRNLPRP, the “shrunken log2 fold change” value is 0.0777.

As for RRIRDRPPRLPRPRPRPDRWPRP, the “shrunken log2 fold change” value turned out to be 0.366.

In the case of RRIRSRPPRLPRPRPRPKCCPRP, the “shrunken log2 fold change” value is -0.0585.

With RRIRPRPPRLPRPRPRPLIFPRP, the “shrunken log2 fold change” value is -0.411.

Turning to RRIRERPPRLPRPRPRPHNCPRP, the “shrunken log2 fold change” value was -0.417.

With RRIRHRPPRLPRPRPRPDTMPRP, the “shrunken log2 fold change” value turned out to be 0.031.

Consider RRIRWRPPRLPRPRPRPASEPRP, for which the “shrunken log2 fold change” value came out at 0.329.

Take RRIRNRPPRLPRPRPRPSWVPRP: the “shrunken log2 fold change” value was -0.289.

Turning to RRIRHRPPRLPRPRPRPVVQPRP, the “shrunken log2 fold change” value is 0.13.

For the sequence RRIRMRPPRLPRPRPRPLRWPRP, the “shrunken log2 fold change” value is 1.32.

Turning to RRIRCRPPRLPRPRPRPPERPRP, the “shrunken log2 fold change” value worked out at 0.576.

For the sequence RRIRRRPPRLPRPRPRPPQSPRP, the “shrunken log2 fold change” value was 0.846.

In the case of RRIRSRPPRLPRPRPRPAVPPRP, the “shrunken log2 fold change” value stood at 0.168.

Regarding RRIRWRPPRLPRPRPRPKLNPRP, the “shrunken log2 fold change” value was found to be 0.318.

Regarding RRIRIRPPRLPRPRPRPHCIPRP, the “shrunken log2 fold change” value is -2.92.

As to RRIRMRPPRLPRPRPRPEASPRP, the “shrunken log2 fold change” value was found to be 3.48.

For the sequence RRIRLRPPRLPRPRPRPFRVPRP, the “shrunken log2 fold change” value amounted to 0.128.

As to RRIRGRPPRLPRPRPRPNLTPRP, the “shrunken log2 fold change” value was 0.374.

Turning to RRIRMRPPRLPRPRPRPFHAPRP, the “shrunken log2 fold change” value worked out at 0.199.

RRIRCRPPRLPRPRPRPWIPPRP: the “shrunken log2 fold change” value was -0.457.

Regarding RRIRKRPPRLPRPRPRPSRYPRP, the “shrunken log2 fold change” value is 0.086.

On to RRIRVRPPRLPRPRPRPEGQPRP, for which the “shrunken log2 fold change” value came out at 0.197.

RRIRNRPPRLPRPRPRPQSYPRP: the “shrunken log2 fold change” value came out at 0.0549.

In the case of RRIRQRPPRLPRPRPRPSQEPRP, the “shrunken log2 fold change” value stood at 0.0169.

In the case of RRIRQRPPRLPRPRPRPEYGPRP, the “shrunken log2 fold change” value is -0.0248.

As to RRIRGRPPRLPRPRPRPAIVPRP, the “shrunken log2 fold change” value worked out at 0.0899.

In the case of RRIRIRPPRLPRPRPRPMSIPRP, the “shrunken log2 fold change” value is -0.0563.

In the case of RRIRERPPRLPRPRPRPEICPRP, the “shrunken log2 fold change” value was 0.162.

For RRIRRRPPRLPRPRPRPVWPPRP, the “shrunken log2 fold change” value came out at 0.36.

In the case of RRIRARPPRLPRPRPRPTKWPRP, the “shrunken log2 fold change” value was 0.4.

For the sequence RRIRQRPPRLPRPRPRPKKAPRP, the “shrunken log2 fold change” value is -0.15.

Turning to RRIRYRPPRLPRPRPRPHSPPRP, the “shrunken log2 fold change” value was -0.0755.

Turning to RRIRARPPRLPRPRPRPGMHPRP, the “shrunken log2 fold change” value was 0.233.

As for RRIRQRPPRLPRPRPRPDMCPRP, the “shrunken log2 fold change” value is -0.225.

With RRIRWRPPRLPRPRPRPMHKPRP, the “shrunken log2 fold change” value worked out at 0.219.

RRIRERPPRLPRPRPRPTFLPRP: the “shrunken log2 fold change” value was -0.724.

For RRIRGRPPRLPRPRPRPFLMPRP, the “shrunken log2 fold change” value worked out at 0.364.

For RRIRTRPPRLPRPRPRPVTQPRP, the “shrunken log2 fold change” value was found to be 0.0354.
